From patent US20240000786A1, “COMPOSITION FOR ENHANCING INTRA-CELLULAR NITRIC OXIDE GENERATION” (INSTITUTE OF LIFE SCIENCES, priority 2020, published 2024)

B1: iNOS Peptide-2 (18 mer iNOS peptide) (peptide)
peptide: NQYYGSFKEAKIEEHLAR
notes: 18-residue iNOS-derived peptide, synthesized commercially by China peptides; also called PP2; PP-2
B2: recombinant Nitric oxide synthase interacting protein (NOSIP) (other)
chain: HMTRHGKNCTAGAVYTYHEKKKDTAASGYGTQNIRLSRDAVKDFDCCCLSLQPCHDPVVTPDGYLYEREAILEYILHQKKEIARQMKAYEKQRGTRREEQKELQRAASQDHVRGFLEKESAIVSRPLNPFTAKALSGTSPDDVQPGPSVGPPSKDKDKVLPSFWIPSLTPEAKATKLEKPSRTVTCPMSGKPLRMSDLTPVHFTPLDSSVDRVGLITRSERYVCAVTRDSLSNATPCAVLRPSGAVVTLECVEKLIRKDMVDPVTGDKLTDRDIIVLQRGGTGFAGSGVKLQAEKSRPVMQALE
notes: It was synthesized by GenScript, cloned in pET22b, expressed in E. coli BL21 (DE3) and purified on Ni-NTA and by gel filtration; A His tag is implied but never described; also called rNOSIP; recombinant NOSIP

Legend:
[1] = target: B2; experiment: ITC, 10 µM iNOS peptide in the chamber, 150 µM rNOSIP in syringe, 25 C
Experimental: (§1) The predictions were tested for validation by […] (SPR). […] The other 3 peptides (Peptide-1, SEQ ID No: 25), (Peptide3, SEQ ID No: 27), and (peptide-4, SEQ ID No: 28) were less efficient in inhibiting interaction between iNOS and NOSIP as shown in FIG. 2(a). […] NOSIP and iNOS peptide (PP2) binding was measured by titrating 10 μM iNOS peptide in the chamber with 150 μM rNOSIP in syringe at 25° C. Top panel, raw heating power over time; Bottom panel, fit of integrated injection enthalpy over the mole ratio of the reactants.

[2] = target: B2; experiment: ITC (MicroCal PEAQ), peptide in cell, rNOSIP in syringe, 25 C
Experimental: (§2) The 18 mer iNOS peptide (PP2) and small molecules were used for physical association of molecules in calorimetric analysis. The molecular association leads to thermodynamics changes such as Gibb's free energy change (ΔG), entropy change (ΔS), enthalpy change (ΔH) and number of binding sites (N) in interacting solution were investigated by isothermal calorimetry MICROCAL PEQ (Malvern) at 25° C. The sample cell were filled with peptides, small molecules and the reference cell was filled with 25 mM HEPES and 150 mM Sodium chloride, pH=7 and the syringe was filled with NOSIP solution (200 μM). The experiment consisted of multiple injections and each injection contained 1.5 μl of binding solution (recombinant NOSIP solution) with 120 second spacing time between subsequent injections. Sequential titrations were carried out and the sample solution was continuously stirred at 270 rpm by the rotating paddle attached to the syringe needle. Multiple injections of NOSIP made into the sample cell containing interacting solution of peptide and small molecules. The titration curves were analyzed using the analysis software provided with the calorimeter.
The 18 mer iNOS peptide (PP2) and five small molecules were used to analyze physical association in calorimetric analysis. The molecular association leads to thermodynamics changes such as Gibb's free energy change (ΔG), entropy change (ΔS), enthalpy change (ΔH) and number of binding sites (N) in interacting solution were investigated by isothermal calorimetry MICROCAL PEQ (Malvern) at 25° C. The sample cell were filled with peptides, small molecules and the reference cell was filled with 25 mM HEPES and 150 mM Sodium chloride, pH=7 and the syringe was filled with NOSIP solution (200 μM). The experiment consisted of multiple injections and each injection contained 1.5 μl of binding solution with 120 second spacing time between subsequent injections. Sequential titrations were carried out and the sample solution was continuously stirred at 270 rpm by the rotating paddle attached to the syringe needle. Multiple injections of NOSIP made into the sample cell containing interacting solution of peptide and small molecules. The titration curves were analyzed using the analysis software provided with the calorimeter.

[3] = target: B2; experiment: ITC, 10 µM iNOS peptide in the chamber, 150 µM rNOSIP in syringe, 25 C; ITC, 25 C; 10 µM iNOS peptide in chamber, 150 µM rNOSIP in syringe
Experimental: as §1

[4] = target: B2; experiment: ITC; this row is the reference of the fold change in Table 1
Experimental: as §2
The 18 mer iNOS peptide (PP2) and five small molecules were used to analyze physical association in calorimetric analysis. […] The titration curves were analyzed using the analysis software provided with the calorimeter.

[5] = target: T1, recombinant human iNOS oxygenase domain (human, UniProt P35228 82-505); experiment: SPR, iNOS immobilised, rNOSIP pre-incubated 30 min on ice with small molecule CC13 (inhibitor), 20 C, 1:1 Langmuir fit
T1 construct: It was cloned in pET22b, expressed in E. coli BL21 (DE3) and purified on Ni-NTA and by gel filtration; A His tag is implied but never described; In SPR it was immobilised on a GLC chip by amine coupling; also called riNOS; r iNOS
T1 sequence (P35228 other isoform, or with tags, fused parts or gaps limits assumed): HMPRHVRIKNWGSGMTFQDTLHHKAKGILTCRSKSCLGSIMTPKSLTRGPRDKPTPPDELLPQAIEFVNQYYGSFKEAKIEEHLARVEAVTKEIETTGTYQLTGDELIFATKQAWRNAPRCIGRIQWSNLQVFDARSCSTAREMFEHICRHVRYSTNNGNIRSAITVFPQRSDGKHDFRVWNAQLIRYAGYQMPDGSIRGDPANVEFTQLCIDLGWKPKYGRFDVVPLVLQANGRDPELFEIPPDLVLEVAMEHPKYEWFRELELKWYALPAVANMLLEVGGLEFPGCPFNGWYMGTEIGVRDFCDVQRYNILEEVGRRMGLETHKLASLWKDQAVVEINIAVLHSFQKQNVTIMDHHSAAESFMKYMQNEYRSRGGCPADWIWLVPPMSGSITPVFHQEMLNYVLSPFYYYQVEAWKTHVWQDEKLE
Experimental: (§3) Four different iNOS peptides were synthesized commercially by China peptides and iNOS peptides were used for molecular interaction studies with immobilized recombinant iNOS purified protein. The iNOS peptides mediated inhibition of rNOSIP and riNOS protein association in Bio-Rad XPR 36 surface plasmon resonance biosensor instrument. […] 250 nM of iNOS peptides was used for inhibition assay with immobilized ligand(recombinant iNOS) in SPR analysis. Similar condition and concentration of small molecules were used for inhibition of recombinant protein association with immobilized ligand. […] The molecular interaction was carried out at 20° C. and kinetic parameters were determined, after fitting the association and dissociation curves to a 1:1 (Langmuir)-binding model. […] The response curves were also recorded on control surfaces. Results were calculated after subtraction of the control values using the ProteOn Manager software.
(§4) The five small molecules bind with NOSIP and inhibit the association of recombinant NOSIP and recombinant iNOS. […] The molecular interaction was carried out at 20° C. and kinetic parameters were determined, after fitting the association and dissociation curves to a 1:1 (Langmuir)-binding model. […] The response curves were also recorded on control surfaces. Results were calculated after subtraction of the control values using the ProteOn Manager software. […]

[6] = target: T1, recombinant human iNOS oxygenase domain; experiment: SPR, iNOS immobilised, rNOSIP with small molecule CC11; KD ratio against the row rNOSIP + iNOS peptide2
Experimental: as §3, §4

[7] = target: T1, recombinant human iNOS oxygenase domain; experiment: SPR, iNOS immobilised; KD ratio against the row rNOSIP + iNOS peptide2 (= 1)
Experimental: as §3, §4

[8] = target: T1, recombinant human iNOS oxygenase domain; experiment: SPR, iNOS immobilised, rNOSIP with small molecule CC5; KD ratio against the row rNOSIP + iNOS peptide2
Experimental: as §3, §4

[9] = target: T1, recombinant human iNOS oxygenase domain; experiment: SPR, iNOS immobilised, rNOSIP pre-incubated 30 min on ice with iNOS peptide 2 (competitor), 20 C, 1:1 Langmuir fit
Experimental: as §3
(§5) The five small molecules bind with NOSIP and inhibit the association of recombinant NOSIP and recombinant iNOS. […] The molecular interaction was carried out at 20° C. and kinetic parameters were determined, after fitting the association and dissociation curves to a 1:1 (Langmuir)-binding model. […] The response curves were also recorded on control surfaces. Results were calculated after subtraction of the control values using the ProteOn Manager software.

[10] = target: T1, recombinant human iNOS oxygenase domain; experiment: SPR, iNOS immobilised, rNOSIP with iNOS peptide 2; this row is the reference of the fold change
[11] = target: T1, recombinant human iNOS oxygenase domain; experiment: SPR, iNOS immobilised, rNOSIP pre-incubated 30 min on ice with small molecule CC5 (inhibitor), 20 C, 1:1 Langmuir fit
Experimental: as §3, §4

[12] = target: T1, recombinant human iNOS oxygenase domain; experiment: SPR, iNOS immobilised, rNOSIP pre-incubated 30 min on ice with small molecule CC6 (inhibitor), 20 C, 1:1 Langmuir fit
Experimental: as §3, §4

[13] = target: T1, recombinant human iNOS oxygenase domain; experiment: SPR, iNOS immobilised, rNOSIP with small molecule CC13; KD ratio against the row rNOSIP + iNOS peptide2
Experimental: as §3, §4

[14] = target: T1, recombinant human iNOS oxygenase domain; experiment: SPR (Bio-Rad ProteOn XPR36), iNOS immobilised on GLC chip by amine coupling, NOSIP as analyte, 20 C, 1:1 Langmuir fit
Experimental: (§6) Four different iNOS peptides were synthesized commercially by China peptides and iNOS peptides were used for molecular interaction studies with immobilized recombinant iNOS purified protein. The iNOS peptides mediated inhibition of rNOSIP and riNOS protein association in Bio-Rad XPR 36 surface plasmon resonance biosensor instrument. […] 250 nM of iNOS peptides was used for inhibition assay with immobilized ligand(recombinant iNOS) in SPR analysis. Similar condition and concentration of small molecules were used for inhibition of recombinant protein association with immobilized ligand. […] The rNOSIP protein was incubated with iNOS derived peptide/small molecules for 30 minutes in ice for inhibition assay before the SPR application in our study. The molecular interaction was carried out at 20° C. and kinetic parameters were determined, after fitting the association and dissociation curves to a 1:1 (Langmuir)-binding model. An activated channel without immobilized ligand was used to evaluate nonspecific binding. The response curves were also recorded on control surfaces. Results were calculated after subtraction of the control values using the ProteOn Manager software.
Manager software was used to fit the data with the Langmuir model describing a 1:1 binding stoichiometry. Ka is the association rate constant, Kd is the dissociation rate constant, and KD is the equilibrium dissociation constant, defined by the Kd/Ka ratio for the analytes—ligand binding.

[15] = target: T1, recombinant human iNOS oxygenase domain; experiment: SPR, iNOS immobilised, rNOSIP pre-incubated 30 min on ice with small molecule CC4 (inhibitor), 20 C, 1:1 Langmuir fit
Experimental: as §3, §5

[16] = target: T1, recombinant human iNOS oxygenase domain; experiment: SPR, NOSIP 1000 nM to 62.5 nM over immobilised iNOS in presence of 250 nM iNOS PP2 (competitor), Kinetic-Langmuir analysis (FIG. 2(b))
Experimental: FIG. 2 depicts inhibition of iNOS-NOSIP protein interaction by iNOS derived peptides. […] These interactions was inhibited in presence of different iNOS peptides (250 nM) viz; PP1—red line, PP2—sky blue line at bottom of graph, PP3—blue line and PP4—green line.
as §6

[17] = target: T1, recombinant human iNOS oxygenase domain; experiment: SPR, iNOS immobilised, rNOSIP with small molecule CC4; KD ratio against the row rNOSIP + iNOS peptide2
Experimental: as §3, §4

[18] = target: T1, recombinant human iNOS oxygenase domain; experiment: SPR, iNOS immobilised, rNOSIP with small molecule CC6; KD ratio against the row rNOSIP + iNOS peptide2
Experimental: as §3, §4

[19] = target: T1, recombinant human iNOS oxygenase domain; experiment: SPR, iNOS immobilised, rNOSIP pre-incubated 30 min on ice with small molecule CC11 (inhibitor), 20 C, 1:1 Langmuir fit
Experimental: as §3, §4

B1
-TΔS [1]: 1.92 kJ/mol
N [1]: 0.993
ΔG [1]: -36 kJ/mol
ΔH [1]: -37.9 kJ/mol
-TΔS [2]: -0.418 kJ/mol
Kd [2]: 0.548 µM
ΔG [2]: -35.7 kJ/mol
ΔH [2]: -35.3 kJ/mol
Kd [3]: 0.493 µM
Fold Change (KD) [4]: 1

B2
KD (M) in presence of small molecule MCULE-8395438746 (CC13) [5]: 0.000543 M
Fold Change (KD) [6]: 164
Fold Change (KD) [7]: 0.00144
Fold Change (KD) [8]: 119
KD (M) in presence of iNOS peptide2 [9]: 4.94e-06 M
Fold Change (KD) [10]: 1
KD (M) in presence of small molecule MCULE-8469877005 (CC5) [11]: 0.000588 M
KD (M) in presence of small molecule MCULE-3765839647 (CC6) [12]: 0.000704 M
Fold Change (KD) [13]: 110
Kd [14]: 0.00711 µM
koff [14]: 0.000681 s⁻¹
kon [14]: 95700 M⁻¹ s⁻¹
KD (M) in presence of small molecule MCULE-4640800528 (CC4) [15]: 0.00087 M
KD in presence of 250 nM iNOS PP2 [16]: 0.495 µM
Ka in presence of 250 nM iNOS PP2 [16]: 5360
Kd in presence of 250 nM iNOS PP2 [16]: 0.00265
Fold Change (KD) [17]: 176
Fold Change (KD) [18]: 142
KD (M) in presence of small molecule MCULE-8094061955 (CC11) [19]: 0.000809 M
